In patent publication US20240207421A1, “NERVE TARGETING PEPTIDES AND METHODS OF USE” (ALUME BIOSCIENCES, INC., priority 2020, published 2024):

molecular target: Laminin 421/521; test: phage display, NGS count

Compared with GAMMNSNNLVAR, WAFKAPQ is higher in Count: 43 for the first, 61 for the second.

First: YTPRNQL
Second: FPLKIRT
The Count of the first is higher: 55 for the first, 42 for the second.

Going from LQSNAADHHQGM to EGHVWSEYTWGT, the Count falls from 75 to 50.

LARSSIMAANNV and AQGVWWSEWFAP are the same in Count: 42 for the first, 42 for the second.

First: DRLTPITWDWSR
Second: KALGYSLVGGEW
The Count of the first is lower: 86 for the first, 134 for the second.

Compared with CSLANPATC, DGQVSDHSYVQW is higher in Count: 52 for the first, 101 for the second.

First: GDLLLKR
Second: CTGRISKHC
The Count of the first is higher: 47 for the first, 43 for the second.

First: WGLKLPH
Second: SFRNLEKLSLWS
The Count of the first is higher: 117 for the first, 50 for the second.

Going from NNNAAMQNHGVR to AKTQAPSNWSGV, the Count falls from 51 to 43.

First: GFADVIHRKWSS
Second: YHLGPNQKMRTS
The Count of the first is higher: 53 for the first, 48 for the second.

First: GHPWTEIDFMSS
Second: ADMPQMTLKYGV
The Count of the first is higher: 50 for the first, 47 for the second.

First: WDLPTLRKTKQA
Second: VPQIRIK
The Count of the first is higher: 114 for the first, 47 for the second.

Compared with CFQPKMNSC, AWNGNRS is higher in Count: 42 for the first, 47 for the second.

Going from CSHHKLKQC to ALGGEPRKAYQR, the Count falls from 359 to 45.

Going from GDLWNVP to GGYDLPWANWQN, the Count rises from 51 to 497.

Going from GWIQDTFVLGRS to WTKHNTPAHHLS, the Count rises from 40 to 89.

Going from HSFLGAR to WPVRNLL, the Count rises from 44 to 67.

CGITQTTTC and EYWHQRGSWFHR are the same in Count: 55 for the first, 55 for the second.

Going from LLAGPFR to QGWFRHS, the Count rises from 44 to 121.

GPKNHHQ and RAQAHQV are the same in Count: 51 for the first, 51 for the second.

First: ATSKYPNSWAQT
Second: CHQRQQTYC
The Count of the first is higher: 80 for the first, 55 for the second.

First: CWSGNSRSC
Second: QTLQTRH
The Count of the first is lower: 42 for the first, 44 for the second.

Going from CNHLTQKLC to GGGYHIFGPLVT, the Count falls from 45 to 43.

Going from DDLLTAPRLGVW to GKPDHRLVSLWR, the Count rises from 54 to 309.

Compared with SLAVANTRFMIR, CTSKLARHC is lower in Count: 49 for the first, 45 for the second.

First: CMNKIQRDC
Second: ASHSRPLMNYAP
The Count of the first is higher: 131 for the first, 49 for the second.

First: GSLDMGNNKQPV
Second: GRTIHSM
The Count of the first is lower: 62 for the first, 95 for the second.

Going from MTHSAHNSQKTN to ETYKVTRVISPW, the Count falls from 117 to 50.

Going from CSKHNHSRC to HQSLAGVPWSRH, the Count falls from 295 to 53.

First: CSVWNSGNC
Second: SNPKHVSSLGQM
The Count of the first is higher: 43 for the first, 40 for the second.

First: KISMNRLHANFT
Second: WGANTTGRTHGG
The Count of the first is higher: 110 for the first, 40 for the second.

Going from SWQMRSY to GEPLTRFPNSDS, the Count rises from 48 to 52.

Going from KPILWNRSLNAL to QTRWDDGSYQIS, the Count falls from 52 to 49.

Going from SGWEGKTHQGVR to SDRGKTVLHGQI, the Count falls from 69 to 54.

First: IPVGERK
Second: GSGFRNEEHSAH
The Count of the first is higher: 124 for the first, 51 for the second.

Compared with VPVFLDQARVMK, HASNQRV is higher in Count: 53 for the first, 93 for the second.

Compared with RLVTASMVSPSF, GSTTHPHFGLPG is lower in Count: 95 for the first, 40 for the second.

Compared with KQELSDNLASHR, WVAAERR is higher in Count: 50 for the first, 115 for the second.

First: APKVTNARPTQL
Second: QGHPFIY
The Count of the first is higher: 147 for the first, 40 for the second.
